For this data set, the system named is AAVS1. Briefly: GFP insertion at AAVS1 in T cells with SpyCas9 RNP and gapped AAV templates, flow cytometry (Example 6). It counts as cell-based, human. To be noted: day 7 post-editing. How it is done: AAVS1 guide RNAs were designed and screened to identify insertion SpyCas9 guides using a series of gapped AAV GFP templates (A, B, C, D, OG) each designed for a subset of the guide RNAs. Insertion efficacy in T cells was examined by assessing GFP expression by flow cytometry. The percentage of T cells positive for green fluorescent protein (“% GFP+”) was assayed by flow cytometry, following AAVS1 editing by mRNA and AAV delivery.
Healthy human donor apheresis was obtained commercially (Hemacare) from two donors (#110042863 and #110040377) and cells were washed and resuspended in MACS Buffer containing 2 mM EDTA and 0.5% Fetal Bovine Serum (FBS) in PBS. Cells were washed twice by centrifugation followed by CD3 negative selection using Easy Sep Human T Cell Isolation Kit (Stemcell, Cat. 100-0695) and separated using Easy Sep Magnets (Stemcell, Cat.18000). T cells were aliquoted and cryopreserved for future use in Cryostor® CS10 (StemCell Technologies Cat. 07930).
AAVS1 guide RNAs were assessed for insertion efficacy in T cells by assessing GFP expression by flow cytometry. The percentage of T cells positive for green fluorescent protein (“% GFP+”) was assayed by flow cytometry, following AAVS1 editing by mRNA and AAV delivery.
AAVS1 targeting sgRNAs corresponding to the flanking homology regions of Gap Templates A, B, C, D, & OG (SEQ ID NOs: 299-303) were removed from their storage plates and denatured for 2 minutes at 95° C. before cooling at room temperature for 10 minutes. RNP mixture of 20 μM sgRNA and 10 μM Cas9-NLS protein (SEQ ID NO: 296) was prepared and incubated at 25° C. for 10 minutes. 2.5 μL of RNP mixture was combined with 250,000 cells in […] P3 electroporation Buffer (Lonza). 22 μL of RNP/cell mix was transferred to the corresponding wells of a Lonza shuttle 96-well electroporation plate. Cells were electroporated in duplicate with the manufacturer's pulse code. T cell media described above without any cytokines was added to the cells immediately post electroporation. T cells were rested for 10 minutes at 37° C. Gap Template AAVs were prepared in 48 well plates (Corning, Cat.353078)) with T cell media described above containing 2× cytokines, 400 U/mL recombinant human interleukin-2 (Peprotech, Cat. 200-02), 10 ng/ml recombinant human interleukin 7 (Peprotech, Cat. 200-07), and 10 ng/ml recombinant human interleukin 15 (Peprotech, Cat. 200-15) cytokines. The multiplicity of infection (MOI) of AAVs was 3×10^^5. AAVs were added to the T cells within 15 minutes post electroporation and incubated for 48 hours at 37° C. AAV-6 vectors encoded AAVS1 Template A, B, C, D or OG. Two days post-electroporation, cells were split 1:2 in 48 well plates replenished with T cell media with 1× cytokines as described above. sgRNAs were tested each with AAV constructs and gapped template.
On day 7 post-editing, cells were phenotyped by flow cytometry to determine GFP expression to confirm integration of AAV at their GAP template site. Briefly, T cells were washed in FACS buffer containing 2 mM EDTA (Invitrogen, Cat.15575020) and 1% FBS in PBS followed by re-suspending in FACS buffer containing 1:10,000 dilution of DAPI (Biolegend, Cat.422801) nuclear stain. Cells were then processed on a Cytoflex flow cytometer (Beckman Coulter) and analyzed using the FlowJo software package. T cells were gated based on size, shape, viability, and GFP expression. Values that were not determined by the flow cytometer were denoted as “ND”. Table 18 and FIGS. 8A-8B show mean percentage of T cells positive for GFP expression.

We go through twelve molecules from patent US20250276090A1, “Methods and Compositions for Genetically Modifying a Cell” (Intellia Therapeutics, Inc., priority 2022, published 2025).

Strand notation (5' to 3'): a small letter for the sugar, then the base; units joined by * are phosphorothioate-linked, units joined directly phosphodiester-linked; [ ] holds rarer units or linkages, { } end groups; capitals alone tell only the bases. m = 2'-O-methyl; r = 2'-OH (RNA)

B1: G013565: AAVS1 SpyCas9 guide RNA, guide sequence SEQ ID NO: 262, chr19:55115850-55115870 (nucleic acid)
guide: mG*mG*mA*rUrCrCrUrGrUrGrUrCrCrCrCrGrArGrCrUrGrUrUrUrUrArGrAmGmCmUmAmGmAmAmAmUmAmGmCrArArGrUrUrArArArArUrArArGrGrCrUrArGrUrCrCrGrUrUrArUrCrAmAmCmUmUmGmAmAmAmAmAmGmUmGmGmCmAmCmCmGmAmGmUmCmGmGmUmGmCmU*mU*mU*mU
For the molecule B1, the “Mean percentage of T cells positive for GFP expression” value (shortened to “Mean percentage of T cells positive”) reads like this: (Donor 1, Template B) 63.50%; (Donor 2, Template B) 65.00%.

B2: G013584: AAVS1 SpyCas9 guide RNA, guide sequence SEQ ID NO: 264, chr19:55115949-55115969 (nucleic acid)
guide: mC*mC*mC*rUrGrGrArArGrArUrGrCrCrArUrGrArCrArGrUrUrUrUrArGrAmGmCmUmAmGmAmAmAmUmAmGmCrArArGrUrUrArArArArUrArArGrGrCrUrArGrUrCrCrGrUrUrArUrCrAmAmCmUmUmGmAmAmAmAmAmGmUmGmGmCmAmCmCmGmAmGmUmCmGmGmUmGmCmU*mU*mU*mU
For the molecule B2, the “Mean percentage of T cells positive” value by setting is: (Donor 1, Template A) 69.15%; (Donor 2, Template A) 62.95%.

B3: G013520: AAVS1 SpyCas9 guide RNA, guide sequence SEQ ID NO: 254, chr19:55115623-55115643 (nucleic acid)
guide: mG*mA*mG*rArGrArUrGrGrCrUrCrCrArGrGrArArArUrGrUrUrUrUrArGrAmGmCmUmAmGmAmAmAmUmAmGmCrArArGrUrUrArArArArUrArArGrGrCrUrArGrUrCrCrGrUrUrArUrCrAmAmCmUmUmGmAmAmAmAmAmGmUmGmGmCmAmCmCmGmAmGmUmCmGmGmUmGmCmU*mU*mU*mU
Turning to B3, the “Mean percentage of T cells positive” value (Donor 1, Template D) amounted to 71.80% and the “Mean percentage of T cells positive” value (Donor 2, Template D) is 72.20%.

B4: G013515: AAVS1 SpyCas9 guide RNA, guide sequence SEQ ID NO: 252, chr19:55115588-55115608 (nucleic acid)
guide: mC*mC*mA*rUrCrGrUrArArGrCrArArArCrCrUrUrArGrGrUrUrUrUrArGrAmGmCmUmAmGmAmAmAmUmAmGmCrArArGrUrUrArArArArUrArArGrGrCrUrArGrUrCrCrGrUrUrArUrCrAmAmCmUmUmGmAmAmAmAmAmGmUmGmGmCmAmCmCmGmAmGmUmCmGmGmUmGmCmU*mU*mU*mU
On to B4, for which the “Mean percentage of T cells positive” value reads like this: (Donor 1, Template C) 61.15%; (Donor 2, Template C) 60.95%.

B5: G013559: AAVS1 SpyCas9 guide RNA, guide sequence SEQ ID NO: 258, chr19:55115823-55115843 (nucleic acid)
guide: mC*mC*mG*rGrCrCrCrUrGrGrGrArArUrArUrArArGrGrGrUrUrUrUrArGrAmGmCmUmAmGmAmAmAmUmAmGmCrArArGrUrUrArArArArUrArArGrGrCrUrArGrUrCrCrGrUrUrArUrCrAmAmCmUmUmGmAmAmAmAmAmGmUmGmGmCmAmCmCmGmAmGmUmCmGmGmUmGmCmU*mU*mU*mU
B5: the “Mean percentage of T cells positive” value is 65.55% (Donor 1, Template B) and 64.05% (Donor 2, Template B).

B6: G013533: AAVS1 SpyCas9 guide RNA, guide sequence SEQ ID NO: 256, chr19:55115691-55115711 (nucleic acid)
guide: mA*mG*mA*rCrCrCrArArUrArUrCrArGrGrArGrArCrUrGrUrUrUrUrArGrAmGmCmUmAmGmAmAmAmUmAmGmCrArArGrUrUrArArArArUrArArGrGrCrUrArGrUrCrCrGrUrUrArUrCrAmAmCmUmUmGmAmAmAmAmAmGmUmGmGmCmAmCmCmGmAmGmUmCmGmGmUmGmCmU*mU*mU*mU
Turning to B6, the “Mean percentage of T cells positive” value reads like this: (Donor 1, Template C) 65.65%; (Donor 2, Template C) 65.15%.

B7: G013519: AAVS1 SpyCas9 guide RNA, guide sequence SEQ ID NO: 253, chr19:55115616-55115636 (nucleic acid)
guide: mG*mC*mA*rArGrGrArGrArGrArGrArUrGrGrCrUrCrCrGrUrUrUrUrArGrAmGmCmUmAmGmAmAmAmUmAmGmCrArArGrUrUrArArArArUrArArGrGrCrUrArGrUrCrCrGrUrUrArUrCrAmAmCmUmUmGmAmAmAmAmAmGmUmGmGmCmAmCmCmGmAmGmUmCmGmGmUmGmCmU*mU*mU*mU
For the molecule B7, the “Mean percentage of T cells positive” value was determined as 73.35% (Donor 1, Template D) and 72.10% (Donor 2, Template D).

B8: G013582: AAVS1 SpyCas9 guide RNA, guide sequence SEQ ID NO: 263, chr19:55115951-55115971 (nucleic acid)
guide: mC*mC*mU*rGrUrCrArUrGrGrCrArUrCrUrUrCrCrArGrGrUrUrUrUrArGrAmGmCmUmAmGmAmAmAmUmAmGmCrArArGrUrUrArArArArUrArArGrGrCrUrArGrUrCrCrGrUrUrArUrCrAmAmCmUmUmGmAmAmAmAmAmGmUmGmGmCmAmCmCmGmAmGmUmCmGmGmUmGmCmU*mU*mU*mU
In the case of B8, the “Mean percentage of T cells positive” value is, setting by setting: (Donor 1, Template A) 66.30%; (Donor 2, Template A) 61.00%.

B9: G013564: AAVS1 SpyCas9 guide RNA, guide sequence SEQ ID NO: 261, chr19:55115836-55115856 (nucleic acid)
guide: mU*mA*mU*rArArGrGrUrGrGrUrCrCrCrArGrCrUrCrGrGrUrUrUrUrArGrAmGmCmUmAmGmAmAmAmUmAmGmCrArArGrUrUrArArArArUrArArGrGrCrUrArGrUrCrCrGrUrUrArUrCrAmAmCmUmUmGmAmAmAmAmAmGmUmGmGmCmAmCmCmGmAmGmUmCmGmGmUmGmCmU*mU*mU*mU
Consider B9, for which the “Mean percentage of T cells positive” value stood at 65.95% (Donor 1, Template A); 61.50% (Donor 1, Template B); 61.20% (Donor 2, Template A); 63.45% (Donor 2, Template B).

B10: G000562: AAVS1 SpyCas9 guide RNA, guide sequence SEQ ID NO: 251, chr19:55115695-55115715 (nucleic acid)
guide: mC*mC*mA*rArUrArUrCrArGrGrArGrArCrUrArGrGrArGrUrUrUrUrArGrAmGmCmUmAmGmAmAmAmUmAmGmCrArArGrUrUrArArArArUrArArGrGrCrUrArGrUrCrCrGrUrUrArUrCrAmAmCmUmUmGmAmAmAmAmAmGmUmGmGmCmAmCmCmGmAmGmUmCmGmGmUmGmCmU*mU*mU*mU
Regarding B10, the “Mean percentage of T cells positive” value is given as 30.60% (Donor 1, Template A); 34.00% (Donor 1, Template B); 57.95% (Donor 1, Template C); 29.65% (Donor 1, Template D); 41.75% (Donor 1, Template OG); 41.20% (Donor 2, Template A). The “Mean percentage of T cells positive” value runs as follows: (Donor 2, Template B) 32.75%; (Donor 2, Template C) 59.10%; (Donor 2, Template D) 27.50%; (Donor 2, Template OG) 37.80%.

B11: G013562: AAVS1 SpyCas9 guide RNA, guide sequence SEQ ID NO: 259, chr19:55115834-55115854 (nucleic acid)
guide: mA*mA*mU*rArUrArArGrGrUrGrGrUrCrCrCrArGrCrUrGrUrUrUrUrArGrAmGmCmUmAmGmAmAmAmUmAmGmCrArArGrUrUrArArArArUrArArGrGrCrUrArGrUrCrCrGrUrUrArUrCrAmAmCmUmUmGmAmAmAmAmAmGmUmGmGmCmAmCmCmGmAmGmUmCmGmGmUmGmCmU*mU*mU*mU
On to B11, for which the “Mean percentage of T cells positive” value by setting is: (Donor 1, Template A) 65.75%; (Donor 1, Template B) 63.60%; (Donor 2, Template A) 62.35%; (Donor 2, Template B) 65.40%.

B12: G013563: AAVS1 SpyCas9 guide RNA, guide sequence SEQ ID NO: 260, chr19:55115835-55115855 (nucleic acid)
guide: mA*mU*mA*rUrArArGrGrUrGrGrUrCrCrCrArGrCrUrCrGrUrUrUrUrArGrAmGmCmUmAmGmAmAmAmUmAmGmCrArArGrUrUrArArArArUrArArGrGrCrUrArGrUrCrCrGrUrUrArUrCrAmAmCmUmUmGmAmAmAmAmAmGmUmGmGmCmAmCmCmGmAmGmUmCmGmGmUmGmCmU*mU*mU*mU
For the molecule B12, the “Mean percentage of T cells positive” value reads like this: (Donor 1, Template A) 73.15%; (Donor 1, Template B) 69.15%; (Donor 2, Template A) 69.40%; (Donor 2, Template B) 71.35%.
